Results as given in patent US20210032365A1 (Chugai, published 2021).
Positions count from the first letter of the chain named.

T1: human C1s (human, UniProt P09871 16-688)
T1 construct: also called hC1s; serum-derived human C1s (CompTech)
T1 sequence: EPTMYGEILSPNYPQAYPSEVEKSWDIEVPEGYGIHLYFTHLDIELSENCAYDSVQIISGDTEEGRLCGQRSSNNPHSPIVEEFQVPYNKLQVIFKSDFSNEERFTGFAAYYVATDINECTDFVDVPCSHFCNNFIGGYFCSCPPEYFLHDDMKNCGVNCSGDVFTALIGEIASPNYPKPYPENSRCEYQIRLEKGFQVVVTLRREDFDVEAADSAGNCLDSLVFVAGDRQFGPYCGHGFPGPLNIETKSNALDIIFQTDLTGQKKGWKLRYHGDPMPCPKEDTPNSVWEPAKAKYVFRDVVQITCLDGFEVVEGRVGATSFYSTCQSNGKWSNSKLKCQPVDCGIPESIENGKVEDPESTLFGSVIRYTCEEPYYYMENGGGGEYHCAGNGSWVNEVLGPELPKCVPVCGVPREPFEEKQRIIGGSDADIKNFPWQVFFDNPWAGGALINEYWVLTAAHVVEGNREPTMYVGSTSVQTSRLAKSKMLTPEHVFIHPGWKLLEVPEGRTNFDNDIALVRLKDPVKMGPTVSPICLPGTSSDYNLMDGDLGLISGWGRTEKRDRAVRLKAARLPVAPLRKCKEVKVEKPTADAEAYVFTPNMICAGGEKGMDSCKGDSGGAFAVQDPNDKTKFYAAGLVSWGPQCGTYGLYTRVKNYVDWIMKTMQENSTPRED

B1: C1_IPN92H0033-SG4GK/IPN93L0072-SK1 (antibody, human IgG4 S228P, kappa, name in Kabat numbering, V domains shown)
VH: EVMLVESGGGLVKPGGSLRLSCAASGFTFSNYAMSWVRQAPGKGLEWVATISSGGSHTYYLDSVKGRFTISRDNSKDTLYLQMNSLRAEDTALYYCARLFTGHAMDYWGQGTLVTVSS
VL: QIVLTQSPATLSLSPGERATLSCTASSSVKSSYLHWYQQKPGKAPKLWIYSTSNLASGVPSRFSGSGSGTDYTLTISSLQPEDFATYYCHQYYRLHPITFGQGTKLEIKR
notes: also called IPN92H0033/IPN93L0072
B2: C1_IPN92H0261-SG4GK/IPN93L0091-SK1 (antibody, human IgG4 S228P, kappa, name in Kabat numbering, V domains shown)
VH: B1 VH with Y60E, G102K
VL: B1 VL with K30S, Y33R
notes: also called IPN92H0261/IPN93L0091
B3: C1_IPN92H0281-SG4GK/IPN93L0024-SK1 (antibody, human IgG4 S228P, kappa, name in Kabat numbering)
heavy: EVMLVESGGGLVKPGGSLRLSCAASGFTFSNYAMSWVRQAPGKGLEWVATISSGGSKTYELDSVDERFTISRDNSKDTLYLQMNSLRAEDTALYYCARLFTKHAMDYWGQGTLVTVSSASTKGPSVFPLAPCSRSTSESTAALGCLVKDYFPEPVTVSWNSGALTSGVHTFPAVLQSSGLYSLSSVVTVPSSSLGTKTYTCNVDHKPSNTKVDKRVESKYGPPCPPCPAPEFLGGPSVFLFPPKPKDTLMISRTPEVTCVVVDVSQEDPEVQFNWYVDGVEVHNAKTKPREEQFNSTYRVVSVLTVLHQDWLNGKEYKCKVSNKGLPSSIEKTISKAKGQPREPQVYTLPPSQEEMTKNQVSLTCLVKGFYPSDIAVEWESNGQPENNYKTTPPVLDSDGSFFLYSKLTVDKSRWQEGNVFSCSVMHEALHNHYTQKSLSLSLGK
light: QIVLTQSPATLSLSPGERATLSCTASSSVSSSYLHWYQQKPGKAPKLWIYSTSNLASGVPSRFSGSGSGTDYTLTISSLQPEDFATYYCHQYYRLHPITFGQGTKLEIKRTVAAPSVFIFPPSDEQLKSGTASVVCLLNNFYPREAKVQWKVDNALQSGNSQESVTEQDSKDSTYSLSSTLTLSKADYEKHKVYACEVTHQGLSSPVTKSFNRGEC
notes: also called IPN92H0281/IPN93L0024
B4: C1_IPN92H0162-SG4GK/IPN93L0024-SK1 (antibody, human IgG4 S228P, kappa, name in Kabat numbering, V domains shown)
VH: B1 VH with Y60K
VL: B1 VL with K30S
notes: also called IPN92H0162/IPN93L0024
B5: C1_IPN92H0147-SG4GK/IPN93L0024-SK1 (antibody, human IgG4 S228P, kappa, name in Kabat numbering, V domains shown)
VH: B1 VH with T58D
VL: B1 VL with K30S
notes: also called IPN92H0147/IPN93L0024
B6: C1_IPN92H0232-SG4GK/IPN93L0024-SK1 (antibody, human IgG4 S228P, kappa, name in Kabat numbering, V domains shown)
VH: B1 VH with G102R
VL: B1 VL with K30S
notes: also called IPN92H0232/IPN93L0024
B7: C1_IPN92H0145-SG4GK/IPN93L0024-SK1 (antibody, human IgG4 S228P, kappa, name in Kabat numbering, V domains shown)
VH: B1 VH with H57R
VL: B1 VL with K30S
notes: also called IPN92H0145/IPN93L0024
B8: C1_IPN92H0188-SG4GK/IPN93L0024-SK1 (antibody, human IgG4 S228P, kappa, name in Kabat numbering, V domains shown)
VH: B1 VH with K65D
VL: B1 VL with K30S
notes: also called IPN92H0188/IPN93L0024
B9: C1_IPN92H0165-SG4GK/IPN93L0024-SK1 (antibody, human IgG4 S228P, kappa, name in Kabat numbering, V domains shown)
VH: B1 VH with L61D
VL: B1 VL with K30S
notes: also called IPN92H0165/IPN93L0024
B10: C1_IPN92H0279-SG4GK/IPN93L0091-SK1 (antibody, human IgG4 S228P, kappa, name in Kabat numbering, V domains shown)
VH: B1 VH with Y60E, G66E, G102K
VL: B1 VL with K30S, Y33R
notes: also called IPN92H0279/IPN93L0091
B11: C1_IPN92H0117-SG4GK/IPN93L0024-SK1 (antibody, human IgG4 S228P, kappa, name in Kabat numbering, V domains shown)
VH: B1 VH with S53Q
VL: B1 VL with K30S
notes: also called IPN92H0117/IPN93L0024
B12: C1_IPN92H0033-SG4GK/IPN93L0090-SK1 (antibody, human IgG4 S228P, kappa, name in Kabat numbering, V domains shown)
VH: B1 VH
VL: B1 VL with K30S, Y33K
notes: also called IPN92H0033/IPN93L0090
B13: C1_IPN92H0159-SG4GK/IPN93L0024-SK1 (antibody, human IgG4 S228P, kappa, name in Kabat numbering, V domains shown)
VH: B1 VH with Y60D
VL: B1 VL with K30S
notes: also called IPN92H0159/IPN93L0024
B14: C1_IPN92H0061-SG4GK/IPN93L0024-SK1 (antibody, human IgG4 S228P, kappa, name in Kabat numbering, V domains shown)
VH: B1 VH with F29K
VL: B1 VL with K30S
notes: also called IPN92H0061/IPN93L0024
B15: C1_IPN92H0144-SG4GK/IPN93L0024-SK1 (antibody, human IgG4 S228P, kappa, name in Kabat numbering, V domains shown)
VH: B1 VH with H57K
VL: B1 VL with K30S
notes: also called IPN92H0144/IPN93L0024
B16: C1_IPN92H0156-SG4GK/IPN93L0024-SK1 (antibody, human IgG4 S228P, kappa, name in Kabat numbering, V domains shown)
VH: B1 VH with Y59K
VL: B1 VL with K30S
notes: also called IPN92H0156/IPN93L0024
B17: C1_IPN92H0231-SG4GK/IPN93L0024-SK1 (antibody, human IgG4 S228P, kappa, name in Kabat numbering, V domains shown)
VH: B1 VH with G102K
VL: B1 VL with K30S
notes: also called IPN92H0231/IPN93L0024
B18: C1_IPN92H0193-SG4GK/IPN93L0024-SK1 (antibody, human IgG4 S228P, kappa, name in Kabat numbering, V domains shown)
VH: B1 VH with G66D
VL: B1 VL with K30S
notes: also called IPN92H0193/IPN93L0024
B19: C1_IPN92H0160-SG4GK/IPN93L0024-SK1 (antibody, human IgG4 S228P, kappa, name in Kabat numbering, V domains shown)
VH: B1 VH with Y60E
VL: B1 VL with K30S
notes: also called IPN92H0160/IPN93L0024
B20: C1_IPN92H0282-SG4GK/IPN93L0091-SK1 (antibody, human IgG4 S228P, kappa, name in Kabat numbering, V domains shown)
VH: B1 VH with Y60E, K65D, G66E, G102K
VL: B1 VL with K30S, Y33R
notes: also called IPN92H0282/IPN93L0091
B21: C1_IPN92H0166-SG4GK/IPN93L0024-SK1 (antibody, human IgG4 S228P, kappa, name in Kabat numbering, V domains shown)
VH: B1 VH with L61E
VL: B1 VL with K30S
notes: also called IPN92H0166/IPN93L0024
B22: C1_IPN92H0157-SG4GK/IPN93L0024-SK1 (antibody, human IgG4 S228P, kappa, name in Kabat numbering, V domains shown)
VH: B1 VH with Y59R
VL: B1 VL with K30S
notes: also called IPN92H0157/IPN93L0024
B23: C1_IPN92H0079-SG4GK/IPN93L0024-SK1 (antibody, human IgG4 S228P, kappa, name in Kabat numbering, V domains shown)
VH: B1 VH with Y32K
VL: B1 VL with K30S
notes: also called IPN92H0079/IPN93L0024
B24: C1_IPN92H0253-SG4GK/IPN93L0024-SK1 (antibody, human IgG4 S228P, kappa, name in Kabat numbering, V domains shown)
VH: B1 VH with D106K
VL: B1 VL with K30S
notes: also called IPN92H0253/IPN93L0024
B25: C1_IPN92H0091-SG4GK/IPN93L0024-SK1 (antibody, human IgG4 S228P, kappa, name in Kabat numbering, V domains shown)
VH: B1 VH with M34K
VL: B1 VL with K30S
notes: also called IPN92H0091/IPN93L0024
B26: C1_IPN92H0194-SG4GK/IPN93L0024-SK1 (antibody, human IgG4 S228P, kappa, name in Kabat numbering, V domains shown)
VH: B1 VH with G66E
VL: B1 VL with K30S
notes: also called IPN92H0194/IPN93L0024
B27: C1_IPN92H0281-SG4GK/IPN93L0091-SK1 (antibody, human IgG4 S228P, kappa, name in Kabat numbering, V domains shown)
VH: B1 VH with H57K, Y60E, K65D, G66E, G102K
VL: B1 VL with K30S, Y33R
notes: also called IPN92H0281/IPN93L0091
B28: C1_IPN92H0282-SG4GK/IPN93L0024-SK1 (antibody, human IgG4 S228P, kappa, name in Kabat numbering, V domains shown)
VH: B1 VH with Y60E, K65D, G66E, G102K
VL: B1 VL with K30S
notes: also called IPN92H0282/IPN93L0024

Biological target: T1, human C1s
Experiment: SPR, Ab captured; pH 7.4, 1.2 mM Ca
Procedure: Each antibody was captured onto the sensor surface by protein A/G. Antibody capture levels were aimed at 200 resonance unit (RU). Serum-derived human C1s (CompTech) or recombinant C1s prepared in EXAMPLE 1 was injected at 50 nM, followed by dissociation. The sensor surface was regenerated in each cycle with 10 mM Glycine-HCl, pH 1.5. […] The ratio of KD 5.8+ to KD 7.4+(“KD 5+/7+”) and that of KD 5.8− to KD 7.4+(“KD 5−/7+”) were calculated. When the KD 5+/7+ or KD 5−/7+ of a variant is larger than that of the parent antibody IPN009VH2-SG4GK/IPN009VK3-SK1, that variant is considered to be “pH”- or “pH and Ca”-dependent, respectively. When binding response in 5(+) buffer and/or in 5(−) buffer of a variant is much lower than that of IPN09VH2/IPN009VK3, that variant is also considered as “pH”- and/or “pH and Ca”-dependent. Therefore, such mutations are effective to generate “pH”- and/or “pH and Ca”-dependent antibody. To further enhance “pH” and/or “pH and Ca” dependency, a combination of histidine mutations was conducted. Antibodies with combinations of histidine mutations were evaluated using Biacore by the method described above.
C1_1IPN92H0033 (SEQ ID NO: 17)-SG4GK/IPN93L0024 (SEQ ID NO: 18)-SK1 (IPN92H0033/IPN93L0024) was selected for further optimization. Histidine, Lysine, Arginine, aspartic acid, glutamic acid, and glutamine scanning was conducted for CDRs and certain positions of FRs of IPN92H0033/IPN93L0024. Variants with a mutation were generated and purified, and evaluated using Biacore by the method mentioned above. All variants were evaluated using Biacore as mentioned above. Mutations that improved “pH” and/or “pH and Ca” dependency were selected for the combination.

| Kd [nM] | koff [s⁻¹] | kon [M⁻¹ s⁻¹] | Binder |
| --- | --- | --- | --- |
| 1.37 | 0.000567 | 413000 | B1 |
| 0.985 | 0.000774 | 786000 | B2 |
| 2.52 | 0.001 | 396000 | B3 |
| 1.8 | 0.000545 | 303000 | B4 |
| 2.05 | 0.000765 | 374000 | B5 |
| 1.5 | 0.000609 | 406000 | B6 |
| 4.71 | 0.00157 | 333000 | B7 |
| 2.03 | 0.000551 | 271000 | B8 |
| 1.77 | 0.000512 | 289000 | B9 |
| 0.686 | 0.000897 | 1.31e+06 | B10 |
| 3.41 | 0.000863 | 253000 | B11 |
| 1.4 | 0.000676 | 482000 | B12 |
| 2.06 | 0.000621 | 302000 | B13 |
| 6.85 | 0.00161 | 236000 | B14 |
| 3.68 | 0.00126 | 343000 | B15 |
| 2.12 | 0.000771 | 364000 | B16 |
| 1.3 | 0.000577 | 444000 | B17 |
| 0.925 | 0.000474 | 513000 | B18 |
| 1.52 | 0.000558 | 368000 | B19 |
| 1.96 | 0.000924 | 471000 | B20 |
| 1.76 | 0.000518 | 294000 | B21 |
| 2.03 | 0.000689 | 340000 | B22 |
| 3.36 | 0.00125 | 373000 | B23 |
| 0.121 | 6.9e-05 | 569000 | B24 |
| 2.69 | 0.000746 | 277000 | B25 |
| 0.885 | 0.000468 | 529000 | B26 |
| 4.72 | 0.00216 | 457000 | B27 |
| 1.65 | 0.000632 | 383000 | B28 |
